± gives the uncertainty stated by the source.
Experiment: self-splicing fitness, log relative to wild type (ln ratio); higher = more splicing; Tetrahymena group I intron in knt gene, E. coli kanamycin selection, DiMSum; sequences stand for … in CUCUCU…GGAGGGAAAAGUUAUCAGGCAUGCACCUGGUAGCUAGUCUUUAAACCAAUAGAUUGCAUCGGUUUAAAAGGCAAGACCGUCAAAUUGCGGGAAAGGGGUCAACAGCCGUUCAGUACCAAGUCUCAGGGGAAACUUUGAGAUGGCCUUGCAAAGGGUAUGGUAAUAAGCUGACGGACAUGGUCCUAACCACGCAGCCAAGUCCUAAGUCAACAGAUCUUCUGUUGAUAUGGAUGCAGUUCACAGACUAAAUGUCGGUCGGGGAAGAUGUAUUCUUCUCAUAAGAUAUAGUCGGACCUCUCCUUAAUGGGAGCUAGCGGAUGAAGUGAUGCAACACUGGAGCCGCUGGGAACUAAUUUGUAUGCGAAAGUAUAUUGAUUAGUUUUGGAGUACUCGUGGUCG
In short: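 Library with all eight P1ex-region intron nucleotides randomised, intron inside the knt kanamycin-resistance gene on pET-22b(+), in E. coli BL21(DE3). Cells grew overnight at 37°C or 30°C on LB agar with or without 25 μg/mL kanamycin (plus 100 μg/mL carbenicillin, 50 μM IPTG, 0.2% rhamnose), in six replicate transformations. Pooled colonies were amplicon-sequenced on Illumina HiSeq 2500. DiMSum fitness is the error-weighted combination of wild-type-normalised replicate fold changes, kanamycin versus none.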

Row | Sequence | self-splicing fitness (ln) (30 °C) | self-splicing fitness (ln) (37 °C)
1 | UUCGAGCAAUAUUACGUGGU | -3.49 ± 0.28 | -3.18 ± 0.2
2 | AAUCAGCAAUAUUACGUGUU | -0.901 ± 0.056 | 0.209 ± 0.064
3 | CAGAAGCAAUAUUACGAGUU | -3.32 ± 0.34 | -2.47 ± 0.3
4 | UGUGAGCAAUAUUACGAGCU | -2.7 ± 0.26 | -2.14 ± 0.41
5 | UGAUAGCAAUAUUACGCAUC | – | -1.53 ± 0.49
6 | AUACAGCAAUAUUACGGUUA | -0.52 ± 0.069 | -0.372 ± 0.071
7 | UUUCAGCAAUAUUACGAGGG | -3.94 ± 0.25 | -1.02 ± 0.13
8 | UGCGAGCAAUAUUACGUGGA | -3.04 ± 0.23 | -3.49 ± 0.33
9 | UCCUAGCAAUAUUACGAUCU | – | -1.69 ± 0.37
10 | AUGUAGCAAUAUUACGCAUU | -3.93 ± 0.18 | -2.89 ± 0.23
11 | GAGUAGCAAUAUUACGUUAA | -3.94 ± 0.22 | -2.33 ± 0.18
12 | AGACAGCAAUAUUACGAGAG | -4.6 ± 0.34 | -2.12 ± 0.17
13 | CUGCAGCAAUAUUACGAAAU | -3.51 ± 0.37 | -1.62 ± 0.18
14 | CCGCAGCAAUAUUACGCAUU | -3.28 ± 0.2 | -3.44 ± 0.19
15 | UAACAGCAAUAUUACGAGGG | -3.58 ± 0.2 | -3.12 ± 0.22
16 | GCCUAGCAAUAUUACGUUCU | -1.96 ± 0.14 | -0.354 ± 0.12
17 | AUUAAGCAAUAUUACGUGGA | -3.32 ± 0.2 | -1.05 ± 0.12
18 | UUCGAGCAAUAUUACGAGUG | -1.81 ± 0.17 | -0.223 ± 0.15
19 | CGCAAGCAAUAUUACGGCUU | -2.5 ± 0.14 | -2.28 ± 0.2
20 | CCAUAGCAAUAUUACGGCCG | -0.548 ± 0.098 | -0.739 ± 0.12
21 | UACCAGCAAUAUUACGUUGG | -3.21 ± 0.12 | -2.85 ± 0.14
22 | ACCUAGCAAUAUUACGUGUG | -1.28 ± 0.057 | -0.808 ± 0.064

Row | Sequence | self-splicing fitness (ln) (30 °C) | self-splicing fitness (ln) (37 °C)
23 | GCGGAGCAAUAUUACGGCGG | -3.3 ± 0.3 | -2.6 ± 0.32
24 | UCAUAGCAAUAUUACGCUUC | – | -2.26 ± 0.23
25 | GACUAGCAAUAUUACGGUGC | -2.65 ± 0.14 | -1.73 ± 0.16
26 | GCACAGCAAUAUUACGUAUA | -0.999 ± 0.06 | -0.413 ± 0.07
27 | CAGAAGCAAUAUUACGCGGU | -3.61 ± 0.12 | -2.34 ± 0.14
28 | GAUAAGCAAUAUUACGCGCU | -1.44 ± 0.14 | -1.47 ± 0.15
29 | UGCCAGCAAUAUUACGCUGG | -3.35 ± 0.24 | -2.63 ± 0.28
30 | CCCAAGCAAUAUUACGCCCU | -3.14 ± 0.43 | –
31 | AUAGAGCAAUAUUACGAACC | -2.16 ± 0.14 | -1.02 ± 0.14
32 | AUAUAGCAAUAUUACGCCCG | -1.67 ± 0.21 | -1.56 ± 0.42
33 | AUUGAGCAAUAUUACGGCCA | -2.29 ± 0.18 | -0.921 ± 0.18
34 | CGGUAGCAAUAUUACGAGCA | -3.2 ± 0.31 | -0.781 ± 0.17
35 | AGCGAGCAAUAUUACGGUAU | -3.18 ± 0.16 | -2.54 ± 0.22
36 | UGCAAGCAAUAUUACGACGC | -1.44 ± 0.4 | -0.865 ± 0.24
37 | GGAAAGCAAUAUUACGCGUG | -0.941 ± 0.054 | -0.486 ± 0.071
38 | AUGAAGCAAUAUUACGCCUU | -1.9 ± 0.16 | -1.01 ± 0.14
39 | AUUGAGCAAUAUUACGGGGC | -3.06 ± 0.26 | -3.09 ± 0.3
40 | UAAUAGCAAUAUUACGGGCU | -3.28 ± 0.27 | -2.16 ± 0.19
41 | GCAAAGCAAUAUUACGCUAA | -2.19 ± 0.14 | -1.29 ± 0.12
42 | UAAUAGCAAUAUUACGGAGG | -3.17 ± 0.24 | -2.83 ± 0.4
43 | UGCAAGCAAUAUUACGGGCA | -1.4 ± 0.11 | -0.815 ± 0.096

From the supplement of paper PMC7877785
